What all share (test): fluorescence polarisation
In assay [1] the target is AP2 μ2 (human unless Table 5 states otherwise (cells not shown)).
Assay [2] deals with FITC-labelled C-terminal peptide of ACE2 (FITC-…-COO-) (human).
For assay [3], the target named is FITC-labelled ACE2 peptide with the predicted PTB binding motif (FITC-…-NH2) (human).
The target in assay [4] is T1, SHANK1 PDZ (human unless Table 5 states otherwise …, UniProt Q9Y566 663-757).
T1 sequence: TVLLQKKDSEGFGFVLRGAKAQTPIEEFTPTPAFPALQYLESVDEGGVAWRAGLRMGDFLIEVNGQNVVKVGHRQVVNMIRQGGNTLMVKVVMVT

The star is where a group is joined. FITC = O=C1OC2(c3ccc(O)cc3Oc3cc(O)ccc32)c2ccc(NC(=S)*)cc21

Turning to “unphosphorylated ACE2 peptide (cytoplasmic tail region with the predicted AP2 μ2, NCK SH2 and ATG8 binding motifs)”, the inhibition constant Ki in assay [1] stood at 101 µM. NHERF3 PDZ1 (domain or fragment) displayed a dissociation constant (Kd) in assay [2] of 8 µM. Take SNX17 FERM domain (domain or fragment): the equilibrium dissociation constant (Kd) in assay [3] is 200 to 300 µM. Turning to {FITC}-QNTDDVQTSF-OH [FITC-labelled C-terminal peptide of ACE2 (FITC-QNTDDVQTSF-COO-)], in assay [4], the dissociation constant (Kd) stood at 14 µM.

Usually Ki stands for the dissociation constant of the complex between target and ligand, obtained from inhibition or displacement. A higher Ki goes with lower affinity. The Kd is the concentration at which binding is half-saturated.

These data come from publication doi:10.1101/2020.10.06.327742 (bioRxiv, 2020).
